Laboratory results: the supplement of paper PMC12764529
± gives the half width of the 95% confidence interval.

Experiments:
[1] = folding stability dG unfold from trypsin proteolysis; higher = more stable
Method in brief: (§1)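 Unfolding free energy was derived, per protease or combined, by relating Bayesian-fitted K50 values from sequencing counts to a sequence-predicted unfolded-state K50 and a shared folded-state K50. The underlying digests exposed cysteine-free mini-proteins under 80 residues, in a PA-tagged cDNA display construct, to trypsin and chymotrypsin at 11 threefold-diluted concentrations and to a no-protease condition. A filter kept only designs with AlphaFold2 dimer inter-PAE above 15.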

[2] = folding stability dG unfold from chymotrypsin proteolysis; higher = more stable
Method in brief: as §1

[3] = folding stability dG unfold (combined trypsin and chymotrypsin); higher = more stable
Method in brief: as §1

Sequence | folding stability dG unfold [1] [kcal/mol] | folding stability dG unfold [2] [kcal/mol] | folding stability dG unfold [3] [kcal/mol]
SAGGSAGGSPYLVTVTLPDGSTLTHTIPVPPDVPLSEEEIRERIRREYPGPPLGPITIERPTESAGGSAGGS [r12_262_JUSTAS] | 0.885 ± 0.015 | 1.62 ± 0.047 | 1.35 ± 0.09
SAGGSAGGSAGGDPKKKKGGTFTLTFKLKFTVNIPEGKVEYEFKAKIKITINEPPDFGLSSAGGSAGGSAGG [r7_485_TrMRF] | 3.81 ± 0.2 | 5.81 ± 0.23 | 5.67 ± 0.3
SAGGSAGGSKPTLTLEIVLPPEMTLEQLEELARALAEELGLDEVEVRVERRPDGYLRITITVKSAGGSAGGS [r20_208_TrROS_Hall] | 3.63 ± 0.18 | 3.45 ± 0.091 | 3.59 ± 0.12
SAGGSAGGSAGSVTLPKNQVGVSVESYEVTLPDETGESVTRYKITLRFAETGLSAEFYAGSAGGSAGGSAGG [r17_266_TrMRF] | 1.2 ± 0.047 | 1.34 ± 0.25 | 1.26 ± 0.22
SAGGSAGGSAGKFKIKVFTHPDGYALALIEVPLGDKPVLILTLIKFPEDGNAEAETFIFPSAGGSAGGSAGG [r11_555_TrMRF] | 2.06 ± 0.053 | 3.25 ± 0.077 | 2.84 ± 0.13
SAGGSAGGSASIELPPDATVTLTTLDPATGTVTTTTVKVDSTGTTTLATTTTTVDPASAAAASAGGSAGGSA [r18_248_JUSTAS] | 1.27 ± 0.055 | 1.35 ± 0.028 | 1.41 ± 0.11
SAGGSAGGSAMLIVGGADPEGAAEAAEEFIAAIEKAAEELGIPPEHIEIPVLIAEPGEAPGSAGGSAGGSAG [r3_249_TrMRF] | 1.19 ± 0.056 | 0.289 ± 0.052 | 0.834 ± 0.12
SAMPEKRFYTYEIPIPPGFKADEPFVGTVTLEEKTLPIKIGSIPDVPPDATVRLTVDLDTAEFRVELLPSAG [r14_554_TrMRF] | 0.91 ± 0.1 | 1.3 ± 0.087 | 1.16 ± 0.2
SDPDAKLLPATFTFRDPLTGEEVTVEVTVYETSGYLLAPAKVTVTLPTKPRTLTATLLVDENGNVHLFVSSA [r9_1015_TrMRF] | 2.82 ± 0.2 | 4.31 ± 0.08 | 3.73 ± 0.17
SAGGSAGGEKPVVTRLELVETEEGLVRLRVELPDGELVEERRFPTLEEALAALPPGAKVEIVPLSAGGSAGG [r6_492_TrROS_Hall] | 1.85 ± 0.032 | 1.54 ± 0.01 | 1.7 ± 0.032
SAGGSMVSEEEIKEIVEKTAAELPEDAVEPVTVTIELPNPDGTTTVLTITITRSPTSISYTVSSSPAASAGG [r19_220_JUSTAS] | 3.56 ± 0.11 | 3.27 ± 0.048 | 3.34 ± 0.039
SAGGSAGGSAGIKIEWEPNPNGSWRMKIEIPNPNGNPKKIEVWANPNGKIREDEAKEILNSAGGSAGGSAGG [r11_759_TrROS] | 0.707 ± 0.12 | 1.18 ± 0.24 | 1.02 ± 0.39
SAGGGSYTIVVELGDKKVVFEIDKEEAVEEAVAKLPELGLEVEVLKKEKVLNEDGKPSVLVEVKVKPSAGGS [r8_336_TrMRF] | -0.663 ± 0.17 | 1.12 ± 0.059 | 0.631 ± 0.1
SAGGSAGGSDMVLVTAPVDIPPNVKVEIKLKDGYETVSYDPESGRLVILVPANKLDEVLEAIKSAGGSAGGS [r12_476_TrMRF] | 0.996 ± 0.026 | 2.01 ± 0.087 | 1.65 ± 0.075
SAGGSAGGSGFPVRLKIWDPDETYTYTVPMDPDNVQKFAEELGEKNFNIETEPNGWATITIPKSAGGSAGGS [r12_292_TrROS] | 0.471 ± 0.08 | 0.95 ± 0.15 | 0.713 ± 0.22
SAGGSKLPPGQKVIEIEWKIPPGLKPGQPFKISDEFINKLAERHGNIHITNIQFTNSYMKWSIIIDSAGGSA [r2_383_TrROS] | 1.83 ± 0.063 | 2.2 ± 0.051 | 2.11 ± 0.067
SAGGSAGGSPGMKPVEIPFRNPDGKNWKITSIYVMPDGPAMITIEDPNNGKERQIPAEDIDEFSAGGSAGGS [r12_488_TrROS] | -0.911 ± 0.58 | 0.227 ± 0.32 | -0.136 ± 0.21
SAGGSMKIVEIKIKRNKNGKLTIEIKVELSEEELEDKEKRKKLIEELAKKLAEELEKKFGIKVEVPSAGGSA [r2_306_TrROS_Hall] | 3.16 ± 0.089 | 3.28 ± 0.091 | 3.28 ± 0.14
SAGGSAGGMTLKIKVAPGAVIRIYNKDGELIEEIEVEEGEEVEIEIELPEEDLENLRIEILPAPSAGGSAGG [r6_471_TrROS_Hall] | 3.96 ± 0.27 | 4.6 ± 0.079 | 4.42 ± 0.25
SAGGSAGGSSPVKQVTEVKDPHSSLPLLRTTETLVLPNGEVVTKVKFIDTKTGKSTEEIFTIPSAGGSAGGS [r20_229_JUSTAS] | 0.724 ± 0.046 | 1.02 ± 0.13 | 0.833 ± 0.089
SAGQTIRIDEIYPHPDGFLIKIRYPDGKVHTFPIKPNMPITVDGDTITITFPGGPITIPLENMEIEILPSAG [r5_999_TrROS] | 3.28 ± 0.069 | 3.17 ± 0.039 | 3.24 ± 0.064
